Measurements: patent US20200123264A1 (Regeneron, published 2020)

Columns and labels:
[1] = target: T1, extracellular domain of human LEPR with an N-terminal myc-myc tag, GPI-anchored on HEK293 cells (human, UniProt P48357 22-839, GPI anchor at the C-terminus ; A GPI anchor is attached at the C end through a carboxypeptidase M derived peptide. The protein is displayed on HEK293 cells.); assay: FACS, 10 nM Ab, HEK293/hLEPR-GPI cells, no added Leptin
T1 construct: also called HEK293/hLEPR-GPI; Mycx2-hLEPR(Ecto)-GPI
T1 sequence: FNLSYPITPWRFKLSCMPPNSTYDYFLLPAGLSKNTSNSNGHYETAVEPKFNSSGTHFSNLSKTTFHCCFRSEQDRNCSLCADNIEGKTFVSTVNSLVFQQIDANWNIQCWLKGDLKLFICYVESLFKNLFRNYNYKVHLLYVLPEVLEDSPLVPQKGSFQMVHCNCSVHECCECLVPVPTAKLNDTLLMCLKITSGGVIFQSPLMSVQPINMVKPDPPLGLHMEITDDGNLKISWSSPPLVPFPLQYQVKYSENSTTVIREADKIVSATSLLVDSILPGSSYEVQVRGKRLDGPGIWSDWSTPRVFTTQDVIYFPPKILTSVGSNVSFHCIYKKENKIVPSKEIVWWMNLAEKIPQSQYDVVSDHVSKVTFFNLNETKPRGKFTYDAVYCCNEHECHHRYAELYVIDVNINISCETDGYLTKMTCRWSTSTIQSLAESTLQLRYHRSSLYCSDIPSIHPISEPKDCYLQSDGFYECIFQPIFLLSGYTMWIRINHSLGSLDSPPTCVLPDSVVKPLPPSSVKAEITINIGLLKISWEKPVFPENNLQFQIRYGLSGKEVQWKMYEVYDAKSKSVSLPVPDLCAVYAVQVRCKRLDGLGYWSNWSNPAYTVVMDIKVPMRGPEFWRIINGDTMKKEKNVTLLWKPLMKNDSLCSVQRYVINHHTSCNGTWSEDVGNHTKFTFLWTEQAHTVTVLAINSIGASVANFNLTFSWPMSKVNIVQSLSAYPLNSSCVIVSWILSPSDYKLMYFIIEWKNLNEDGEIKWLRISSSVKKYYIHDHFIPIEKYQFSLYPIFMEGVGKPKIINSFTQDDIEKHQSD
Method: For the FACS analysis, HEK293 parental cells and HEK293/hLEPR-GPI cells were dissociated and plated onto 96-well v-bottom plates at 5×10⁵ cells/well in PBS containing 2% FBS (FACS buffer). […] Cells were subsequently fixed using BD CytoFix™ (Becton Dickinson, #554655), filtered, and analyzed on a HyperCyt Flow Cytometer (Beckman Coulter). Unstained and secondary antibody alone controls were also tested for all cell lines. The results were analyzed using ForeCyt (IntelliCyt) and FlowJo version 10 softwares to determine the geometric means of fluorescence for viable cells. The geometric mean of fluorescence for each sample was then normalized to the geometric mean of unstained cells to obtain relative binding per condition referred to as “binding ratios”, and these binding ratios were recorded in Table 14 for each antibody tested.

[2] = target: T2, full-length human LEPR on IMR-32/STAT3-Luc/hLEPR cells (human, UniProt P48357 22-1165); assay: cell-based or functional assay
T2 sequence (looked up): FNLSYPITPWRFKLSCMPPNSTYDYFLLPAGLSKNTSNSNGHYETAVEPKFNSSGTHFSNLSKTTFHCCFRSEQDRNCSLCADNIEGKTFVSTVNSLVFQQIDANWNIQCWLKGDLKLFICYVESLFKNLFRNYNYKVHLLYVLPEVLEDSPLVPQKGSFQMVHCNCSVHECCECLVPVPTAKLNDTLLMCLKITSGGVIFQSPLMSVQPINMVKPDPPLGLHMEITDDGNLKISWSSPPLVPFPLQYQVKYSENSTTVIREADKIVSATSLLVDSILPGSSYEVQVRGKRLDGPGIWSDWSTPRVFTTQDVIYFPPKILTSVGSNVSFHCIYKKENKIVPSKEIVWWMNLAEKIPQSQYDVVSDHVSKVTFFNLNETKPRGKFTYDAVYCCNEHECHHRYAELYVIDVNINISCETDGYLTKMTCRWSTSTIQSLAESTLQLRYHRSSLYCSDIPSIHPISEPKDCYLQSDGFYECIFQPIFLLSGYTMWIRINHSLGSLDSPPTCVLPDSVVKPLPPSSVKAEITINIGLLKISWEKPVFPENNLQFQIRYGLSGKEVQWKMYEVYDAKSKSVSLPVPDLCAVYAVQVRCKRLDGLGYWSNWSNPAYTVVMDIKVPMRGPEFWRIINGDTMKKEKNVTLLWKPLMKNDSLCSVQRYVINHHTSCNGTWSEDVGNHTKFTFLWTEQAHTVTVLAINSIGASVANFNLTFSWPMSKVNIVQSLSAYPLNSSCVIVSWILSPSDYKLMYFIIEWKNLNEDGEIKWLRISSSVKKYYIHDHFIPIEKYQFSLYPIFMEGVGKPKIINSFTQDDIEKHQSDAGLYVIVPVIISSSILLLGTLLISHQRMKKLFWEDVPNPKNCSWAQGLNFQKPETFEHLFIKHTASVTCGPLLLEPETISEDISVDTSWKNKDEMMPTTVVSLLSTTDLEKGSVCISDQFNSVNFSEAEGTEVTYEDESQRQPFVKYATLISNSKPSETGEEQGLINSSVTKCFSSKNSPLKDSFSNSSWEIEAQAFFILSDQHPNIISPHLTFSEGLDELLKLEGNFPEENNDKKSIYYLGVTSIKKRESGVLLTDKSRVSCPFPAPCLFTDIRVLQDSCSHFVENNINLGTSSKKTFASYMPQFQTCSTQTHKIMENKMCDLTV

| Binder | Binding Ratio (normalized to unstained) [1] | % activation, IMR-32/LEPR without human Leptin [2] | % inhibition, IMR-32/LEPR with 200 pM human Leptin [2] | EC50 (M), IMR-32/LEPR without human Leptin (STAT3-Luc) [2] | IC50 (M), IMR-32/LEPR with 200 pM human Leptin [2] |
| --- | --- | --- | --- | --- | --- |
| H4H18464P2 (antibody, human IgG4, V domains shown, H4H prefix: human IgG4 Fc) VH: QVQLVQSGPEVKKPGASVKVSCKGSGYTFSWYGISWIRQAPGHGLEWMGWISASSGNTRFAQKVQGRLTMTTDTSTSTAYMELRSLRSDDTAVYYCARTGTRPFDYWGQGTLVTVSS VL: not shown | 2320 fold | 6% | 100% | 1.3e-10 M | 2.9e-09 M |
| H4H18440P2 (antibody, human IgG4, V domains shown, H4H prefix: human IgG4 Fc) VH: QVQLVESGGGMVKPGGSLRLSCAASGFTFSDYYMSWIRQAPGKGLEWISHISITGSTIYYADSVKGRFTISRDNAKNSLYLEMNRLRDEDTAVYYCTRDEPDIVLVRYGMDVWGQGTTVTVSS VL: not shown | 1640 fold | 4% |  |  |  |
| H4H18457P2 (antibody, human IgG4, V domains shown, H4H prefix: human IgG4 Fc) VH: EVQLVESGGSVVRPGESLRLSCAASGFTFDDYGMSWVRQAPGKGLEWVSGISWNGGITVYADSVKGRFTVSRDNAKNSLYLQMNSLRAEDTALYHCARARYGGADYWGQGTLVTVSS VL: not shown | 3190 fold |  | 100% |  | 7.23e-10 M |
| H4H18439P2 (antibody, human IgG4, V domains shown, H4H prefix: human IgG4 Fc) VH: QLQLQESGPGLVKPSETLSLTCIVSGGDITSSSYYWNWIRQPPGKGLEWIGNIYYSGSTNYNPSLKSRVTISIDTSKSQFSLKLRSVTAADTAVYYCARLLRYFDWSKGYLDYWGQGTLVTVSS VL: not shown | 1530 fold |  |  |  |  |
| H4H18462P2 (antibody, human IgG4, V domains shown, H4H prefix: human IgG4 Fc) VH: EVQLVESGGDLVQPGRSLRLSCAASGFTFSSFAMSWVRQAPGRGLEWVSSLSDSGDNTYYADSVKGRFTISRDNSKNTLYLQMNNLRAEDTAVYYCAKDLFSGWLFHGFDVWGQGTMVTVSS VL: not shown | 1170 fold |  |  |  |  |
| H4H18466P2 (antibody, human IgG4, V domains shown, H4H prefix: human IgG4 Fc) VH: EVQLVESGGGLVQPGGSLRLSCTASGFTFSSYGLHWVRQAPGKGLEYVSSINHNGGSKYYADSVKGRFTISRDNSKNTLFLQMGSLKTEDMAVYYCARDLFLEWLFHGFDIWGQGTMVTVSS VL: not shown | 824 fold |  |  |  |  |
